Test results as given in PMC6656783, “ABCE1 Controls Ribosome Recycling by an Asymmetric Dynamic Conformational Equilibrium” (Cell Reports, 2019).

How the values were obtained:
[1] = target: T1, ABCE1 (Saccharolobus solfataricus, UniProt Q980K5, K177C/T393C); experiment: malachite green ATPase assay; format: biochemical; conditions: site II variant, before and after Cy3B/Atto647N labelling of the protein; 5 mM ATP, 10 mM MgCl2, pH 7.5, 80 °C
T1 construct: gene SSO0287; full length with N-terminal FeS cluster domain, C-terminal His6 tag, pSA4 vector, expressed in E. coli BL21(DE3) pRARE; about 70 kDa

[2] = target: 30S ribosomal subunit from Sulfolobus solfataricus (Sulfolobus solfataricus); experiment: dissociation time course by burst-length analysis in single-molecule ALEX/smFRET; 30 nM labelled ABCE1 with 25 μM AMP-PNP and 12.5 μM 30S, 73°C 10 min; then 630-fold dilution with 2 μM unlabelled ABCE1, dissociation followed at 73°C for 0-10 min; the association rate is estimated from this rate and the KD
[3] = target: 30S ribosomal subunit from Sulfolobus solfataricus (Sulfolobus solfataricus); experiment: burst-length (diffusion) analysis in single-molecule ALEX/smFRET; titration of 30S; percentage of 30S-bound ABCE1 at each concentration; 2 mM AMP-PNP, 73°C, 10 min

| koff [2] [s⁻¹] | kon [2] [M⁻¹ s⁻¹] | Kd [3] [nM] | Compound | malachite green ATPase assay [1] |
| --- | --- | --- | --- | --- |
| – | – | – | Nc1ncnc2c1ncn2[C@@H]1O[C@H](COP(=O)(O)OP(=O)(O)OP(=O)(O)O)[C@@H](O)[C@H]1O [ATP] | verified by determining the basal ATP hydrolysis, which was similar to the wild type |
| 0.00833 | 400000 | 20 | ABCE1^K177C/T393C (site II variant), labelled with Cy3B and Atto647N (enzyme) | – |
